According to the supplement of paper PMC9112550, “Optimization of the antimicrobial peptide Bac7 by deep mutational scanning” (BMC Biology, 2022):

Test system: Escherichia coli TOP10
Experiment: shrunken log2 fold change of peptide-encoding DNA abundance (4.5 h post-induction vs induction); higher = less antimicrobial activity (less host growth inhibition)
Settings: time post-induction: 4.5 h; library: site-saturation at positions 5, 18, 19, 20
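Also: peptides expressed intracellularly from a pBAD plasmid library in pooled LB shake-flask culture, induced with 0.3% L-arabinose, DNA abundance read by NGS, three biological replicates, DESeq2 with apeglm shrinkage.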

| Sequence | shrunken log2 fold change |
| --- | --- |
| RRIRGRPPRLPRPRPRPRKLPRP | 0.86 |
| RRIRGRPPRLPRPRPRPRLDPRP | 0.692 |
| RRIRGRPPRLPRPRPRPRLGPRP | 0.799 |
| RRIRGRPPRLPRPRPRPRSIPRP | 0.238 |
| RRIRGRPPRLPRPRPRPRSTPRP | 0.978 |
| RRIRGRPPRLPRPRPRPRWFPRP | 0.355 |
| RRIRGRPPRLPRPRPRPRWVPRP | 0.289 |
| RRIRGRPPRLPRPRPRPRYIPRP | -0.222 |
| RRIRGRPPRLPRPRPRPSDCPRP | 0.105 |
| RRIRGRPPRLPRPRPRPSECPRP | 0.519 |
| RRIRGRPPRLPRPRPRPSEGPRP | 0.356 |
| RRIRGRPPRLPRPRPRPSENPRP | 0.359 |
| RRIRGRPPRLPRPRPRPSFHPRP | -0.17 |
| RRIRGRPPRLPRPRPRPSGLPRP | 0.3 |
| RRIRGRPPRLPRPRPRPSGRPRP | 0.522 |
| RRIRGRPPRLPRPRPRPSHRPRP | -0.0458 |
| RRIRGRPPRLPRPRPRPSHSPRP | 0.0319 |
| RRIRGRPPRLPRPRPRPSIRPRP | 0.417 |
| RRIRGRPPRLPRPRPRPSKAPRP | 0.165 |
| RRIRGRPPRLPRPRPRPSMGPRP | 0.34 |
| RRIRGRPPRLPRPRPRPSNQPRP | 0.0776 |
| RRIRGRPPRLPRPRPRPSQYPRP | -0.034 |
| RRIRGRPPRLPRPRPRPSRDPRP | 0.921 |
| RRIRGRPPRLPRPRPRPSRIPRP | -0.234 |
| RRIRGRPPRLPRPRPRPSRKPRP | 0.293 |

| Sequence | shrunken log2 fold change |
| --- | --- |
| RRIRGRPPRLPRPRPRPSTYPRP | -0.189 |
| RRIRGRPPRLPRPRPRPSWLPRP | 0.519 |
| RRIRGRPPRLPRPRPRPSWWPRP | 0.537 |
| RRIRGRPPRLPRPRPRPSYCPRP | 0.237 |
| RRIRGRPPRLPRPRPRPTAIPRP | 0.974 |
| RRIRGRPPRLPRPRPRPTCPPRP | 0.419 |
| RRIRGRPPRLPRPRPRPTDHPRP | 0.335 |
| RRIRGRPPRLPRPRPRPTESPRP | 0.803 |
| RRIRGRPPRLPRPRPRPTFAPRP | 0.997 |
| RRIRGRPPRLPRPRPRPTGDPRP | 0.782 |
| RRIRGRPPRLPRPRPRPTGQPRP | 0.793 |
| RRIRGRPPRLPRPRPRPTGSPRP | 0.864 |
| RRIRGRPPRLPRPRPRPTIAPRP | 0.895 |
| RRIRGRPPRLPRPRPRPTIRPRP | 0.432 |
| RRIRGRPPRLPRPRPRPTKCPRP | 0.684 |
| RRIRGRPPRLPRPRPRPTKRPRP | 0.533 |
| RRIRGRPPRLPRPRPRPTLIPRP | 0.337 |
| RRIRGRPPRLPRPRPRPTNNPRP | 0.217 |
| RRIRGRPPRLPRPRPRPTPKPRP | 1.2 |
| RRIRGRPPRLPRPRPRPTPTPRP | 0.98 |
| RRIRGRPPRLPRPRPRPTQEPRP | 1.38 |
| RRIRGRPPRLPRPRPRPTQLPRP | 1.02 |
| RRIRGRPPRLPRPRPRPTRCPRP | 0.527 |
| RRIRGRPPRLPRPRPRPTRPPRP | 1.16 |
| RRIRGRPPRLPRPRPRPTSNPRP | 0.659 |

| Sequence | shrunken log2 fold change |
| --- | --- |
| RRIRGRPPRLPRPRPRPTVHPRP | 1.77 |
| RRIRGRPPRLPRPRPRPTYCPRP | 0.309 |
| RRIRGRPPRLPRPRPRPTYPPRP | 0.0703 |
| RRIRGRPPRLPRPRPRPTYVPRP | -0.144 |
| RRIRGRPPRLPRPRPRPTYYPRP | 0.0798 |
| RRIRGRPPRLPRPRPRPVCKPRP | 0.124 |
| RRIRGRPPRLPRPRPRPVCLPRP | 1.1 |
| RRIRGRPPRLPRPRPRPVDEPRP | 1.05 |
| RRIRGRPPRLPRPRPRPVEYPRP | -0.0779 |
| RRIRGRPPRLPRPRPRPVFGPRP | 0.556 |
| RRIRGRPPRLPRPRPRPVHKPRP | 0.518 |
| RRIRGRPPRLPRPRPRPVIKPRP | 0.0737 |
| RRIRGRPPRLPRPRPRPVIQPRP | 0.0682 |
| RRIRGRPPRLPRPRPRPVITPRP | -0.09 |
| RRIRGRPPRLPRPRPRPVKPPRP | 0.268 |
| RRIRGRPPRLPRPRPRPVNIPRP | 0.145 |
| RRIRGRPPRLPRPRPRPVPKPRP | 0.92 |
| RRIRGRPPRLPRPRPRPVPWPRP | 0.526 |
| RRIRGRPPRLPRPRPRPVQKPRP | 0.434 |
| RRIRGRPPRLPRPRPRPVRMPRP | 0.963 |
| RRIRGRPPRLPRPRPRPVSLPRP | 0.321 |
| RRIRGRPPRLPRPRPRPVYDPRP | 0.32 |
| RRIRGRPPRLPRPRPRPWALPRP | -0.115 |
| RRIRGRPPRLPRPRPRPWCCPRP | 0.0685 |
| RRIRGRPPRLPRPRPRPWCLPRP | -0.262 |
